Measured values published in the RNAGym collection of RNA variant scans (doi:10.1073/pnas.2313332121).
This sample holds only a part of the variants without activity.

B1: TPR 5TU (parent)
chain: GGAUCUUCUCGAUCUAACAAAAAAGACAAAUCUGCCACAAAGCUUGAGAGCAUCUUCGGAUGCAGAGGCGGCAGCCUUCGGUGGCGCGAUAGCGCCAACGUUCUCAACUAUGACACGCAAAACGCGUGCUCCGUUGAAUGGAGUUUAUCAUG

Variants of: B1
Assay: polymerase ribozyme fitness, log enrichment relative to wild type (log ratio); higher = more active; in vitro selection for triplet polymerase activity
In short: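 In triplicate, a single round of in vitro selection was run on each mutant library, PCR-built and transcribed, covering one subunit of a heterodimeric triplet polymerase ribozyme. Frozen incubation at −7 °C followed annealing with a biotinylated primer, partner subunit and triplets, and extended constructs were then gel-excised, streptavidin-captured and taken through RT-PCR. Fitness is the logarithm of genotype enrichment over wild-type enrichment, from inverse-variance-weighted replicate averages of Illumina-sequenced inputs and outputs. […] only genotypes with ≥10 input reads and ≥1 read per output were kept.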

Row | Variant | polymerase ribozyme fitness (log ratio)
1 | GGAUCUUCUCGAUCUAACUAAAAAGACAAAUCUGCCACAAAGCUUGAGAGCAUCUUCGAAUGCAGAGGCGGCAGCCUUCGGUUGCGCGAUAGCGACAACGUUCUCAACUAUGACACGCAAAACGCGUGCUCUGUUUAAUGAAGUUUAUCAUG [A19U G59A G83U C95A C132U G136U G141A] | ≤ -4.2
2 | GGAUCUUCUCGAUCUAACUAAAAAGACAAAUCUGCCACAAAGCUUGAGAGCAUCUUCGGAUGCAGAGGCGGCAGCCUUCGGUGGCGCGAUAGCGCCAACGUUCUCAACUAUGACACGCAAAACGCGUGCUCCGUUGAAUGAAGUUUAUCAUG [A19U G141A] | 0.304
3 | GGAUCUUCUCGAUCUAACUAAAAAGACAAAUCUGCCACAAAGCUUGAGAGCAUCUUCAGAUGCAGAGGCGGCAGCCUUCGGUGGCGCGAUAGCUCCAACGUUCUCAACUAUGACAAGCCAAACGCGUGCUCCGUUGAAUGGAGUUUAUCAUG [A19U G58A G94U C116A A119C] | -0.758
4 | GGAUCUUCUCGAUCUAACUAAAAAGACAAAUCUGCCACAAAGCUUGAGAGCAUCUUCGGAUGCAGAGGCGGCAGCCUUCGAUGGCGCGAUAGCGCCAACGUUCUCAACUAUGACACGCAAAACGCGUGCUCCGUUGAAUGGAGUUUAUCAUG [A19U G81A] | -0.839
5 | GGAUCUUCUCGAUCUAACUAAAAAGACAAAUCUGCCACAAAGCUUGAGAGCAUCUUCGGAUGCAGAGGCGGCAGCCUUCGGUGGCACGAUAGCGCCAACGUUCUCAACUAUGACACGCAAAACGCGUGCUCCGUUGAAUGGAGUUUAUCAUG [A19U G86A] | -2.04
6 | GGAUCUUCUCGAUCUAACUAAAAAGACAAAUCUGCCACAAAGCUUGAGAGCAUCUUCGGAUGCAGAGGCGGCAGCCUUCGGUGGCCCGAUAGCGCCAACGUUCUCAACUAUGACACGCAAAACGCGUGCUCCGUUGAAUGGAGUUUAUCAUG [A19U G86C] | -2.58
7 | GGAUCUUCUCGAUCUAACUAAAAAGACAAAGCUGCCACAAAGCUUGAGAGCAUCUUCGGAUGCAGAGGCGGCAGCCUUCGGUGGCGCGAUAGCGCCAACGUUCUCAACUAUGACACGCAAAACGCGUGCUCCGUUGAAUGGAGCUUAUCAUG [A19U U31G U144C] | -1.49
8 | GGAUCUUCUCGAUCUAACUAAAAAGACAAAUCAGCCACAAAGCUUGAGAGCAUCUUCGGAUGCAGAGGCGGCAGCCUUCGGUGACGCGAUACCCCCAACGUUCUCAACUAUGACACGCAAAACGCGUGCUCCGUUGAAUGGAGUUUAUCAUG [A19U U33A G84A G92C G94C] | ≤ -4.2
9 | GGAUCUUCUCGAUCUAACACAAUAGAAAAAUCUGCCACAAAGCUUGAGAGCAUCUUCUGAUGCAGAGGCGGAAGCCUUCGGUGGCGCGGUAGCGCCAAAGUUCUCACCUAUGACACGCAAAACGCGUGCUCCGUUGAAUGGAGUUUAUCAUG [A20C A23U C27A G58U C72A A89G C99A A107C] | ≤ -4.2
10 | GGAUCUUCUCGAUCUAACUAAAAAGACAAAUCUGCCACAAAGCUUGAGAGCAUCUUCGUAUGCAGAGGCGGCAGCCUUCGGUGGCACGAUAGCGCCAACGUUCUCAACUAUGACACGCAAAACGCGUGCUCCGUUAAAUGGAGUUUAUCAUG [A19U G59U G86A G136A] | -2.01
11 | GGAUCUUCUCGAUCUAACACAAAUGACAAAUCUGCCACAAAGCUUGAGAGCAUCUUCGGAUGCAGAGGCGGCAGCCUUCGGUGGCGCGAUAGUGCCAACGUUCUCAACUAUGACACGCAAAACGCGUGCGCCGUUGAAUGGAGUUUAUCGUG [A20C A24U C93U U130G A150G] | ≤ -4.2
12 | GGAUCUUCUCGAUCUAACUAAAAAGACAAACCUGCCACAAAGCUUAAGAGCAUCUUCGGAUGCAGAGGCGGCAGCCUUCGGUGGCGCGAUAGCGCUAACGUUCUCAACUAUGACACGCAAAACGCGUGCUUCGUUGAAGGGAGUUUAUCAUG [A19U U31C G46A C96U C131U U139G] | -2.16
13 | GGAUCUUCUCGAUCUAACUAAAAAGACAAAUCUGCCACAAAGCUGGAGAGCAUCUUCGGAUGCAGAGGCGGCAGCCUUCGGUCGCGCGAUAGCGCCAACGUUCUCAACUAUGACACGCAAAACGCGAGCUCCGUUGAAUGGAGUUUAUCAUG [A19U U45G G83C U127A] | ≤ -4.2
14 | GGAUCUUCUCGAUCUAACUAAAAAGACAAAUCUGCCACAAAGCAUGAGAGCAUCUUCGGAUGCAGAGGCGGCAGCCUUCGGUGGCGCGAUAGCGUCAAGGUUCUCAACUAUGACACGCAAAACGCGUGCUCCGUUGAAUGGAGUUUAUCAUG [A19U U44A C95U C99G] | ≤ -4.2
15 | GGAUCUUCUCGAUCUAACUAAAAAGACAAAUCUGCCACAAAGCUUGAGAGCAUCUUCGAAUGCAGAGGCGGCAGCCUUCGGUUGCGCGAUAGCGCCAACGUUCUCAACUAUGACACGCAAAACGCGUGCUCCGUUGAAGGGAGUUUAUCAUG [A19U G59A G83U U139G] | -1.28
16 | GGAUCUUCUCGAUCUAACUAAAAAGACAAAUCUGCCACAAAGCGUGAGACCAUCUUCGGAUGCAGAGGCGGCGGCAUUCGGUGGCGCGAUAGCGCCAACGUUCUCAACUAUGACACGCAAAACGCGUGCUCCGUUGAAUAGAGUUUAUCAUG [A19U U44G G50C A73G C76A G140A] | ≤ -4.2
17 | GGAUCUUCUCGAUCUAACUAAAAAGACAAAUCUGCCACAAAGCUUGAGAGCAUCGUCGGAUGCAGAGGCGGCAGCCUUCGGUGGCUCGAUAGCGCCAACGUUCUCAACUAUGACACGCAAAACGCGUGCUCCGUUGAAUGGAGUUUAUCAUG [A19U U55G G86U] | -1.7
18 | GGAUCUUCUCGAUCUAACUAAAAAGACAAAUCUGCCACAAAGCUUGAGAGCAUCUUCGGAAGCAGAGGCGGCAGCCUUCGGUGGCUCGAUAGCGCCAACGUUCUCAGCUAUGACUCGCAAAACGCGUGCUCCGUUGAAUGGAGUUUAUCAUU [A19U U61A G86U A107G A115U G152U] | ≤ -4.2
19 | GGAUCUUCUCGAUCUAACACAUAAGACAAAUCUGCCACAAAGCUUGAGAGUAUCUUCGGAUGCAGAGGCGGCAGCCUUCGGUGGCGCGAUAGCGCCAACGUUCUCAACUAUGACACGCAAAACGCGUGCUCCGUUGAAUGGAGUUUAUCAUG [A20C A22U C51U] | -0.386
